Experimental data published in the supplement of paper PMC9112550, “Optimization of the antimicrobial peptide Bac7 by deep mutational scanning” (BMC Biology, 2022).

tested on: Escherichia coli TOP10; test: shrunken log2 fold change of peptide-encoding DNA abundance (4.5 h post-induction vs induction); higher = less antimicrobial activity (less host growth inhibition); details: time post-induction: 4.5 h; library: site-saturation at positions 5, 18, 19, 20
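Further: peptides expressed intracellularly from a pBAD plasmid library in pooled LB shake-flask culture, induced with 0.3% L-arabinose, DNA abundance read by NGS, three biological replicates, DESeq2 with apeglm shrinkage.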

Sequence	shrunken log2 fold change
RRIRNRPPRLPRPRPRPEFRPRP	-0.107
RRIRERPPRLPRPRPRPTSVPRP	-0.028
RRIRHRPPRLPRPRPRPNDIPRP	-0.0322
RRIRWRPPRLPRPRPRPYMFPRP	-0.194
RRIRYRPPRLPRPRPRPWQCPRP	0.06
RRIRVRPPRLPRPRPRPSLGPRP	0.0433
RRIRHRPPRLPRPRPRPIPWPRP	0.0217
RRIRLRPPRLPRPRPRPTHLPRP	-0.12
RRIRHRPPRLPRPRPRPPDAPRP	0.348
RRIRQRPPRLPRPRPRPWVGPRP	-0.0518
RRIRNRPPRLPRPRPRPIVSPRP	-0.00673
RRIRERPPRLPRPRPRPHGQPRP	-0.0165
RRIRIRPPRLPRPRPRPSTNPRP	-0.573
RRIRTRPPRLPRPRPRPCAWPRP	-0.277
RRIRPRPPRLPRPRPRPARFPRP	0.383
RRIRQRPPRLPRPRPRPMTGPRP	0.0323
RRIRSRPPRLPRPRPRPHKPPRP	-0.507
RRIRARPPRLPRPRPRPKPHPRP	0.579
RRIRPRPPRLPRPRPRPKYCPRP	-0.91
RRIRNRPPRLPRPRPRPIEGPRP	-0.0908
RRIRWRPPRLPRPRPRPPECPRP	-0.0729
RRIRMRPPRLPRPRPRPSVTPRP	0.703
RRIRNRPPRLPRPRPRPPIQPRP	0.0569
RRIRNRPPRLPRPRPRPPLRPRP	0.138
RRIRIRPPRLPRPRPRPPWLPRP	0.412

Sequence	shrunken log2 fold change
RRIRFRPPRLPRPRPRPWHCPRP	-0.028
RRIRKRPPRLPRPRPRPPRAPRP	1.15
RRIRQRPPRLPRPRPRPNPTPRP	0.00513
RRIRYRPPRLPRPRPRPFSFPRP	-0.35
RRIRPRPPRLPRPRPRPCQHPRP	-0.161
RRIRYRPPRLPRPRPRPKRKPRP	-0.128
RRIRLRPPRLPRPRPRPQAMPRP	0.00366
RRIRSRPPRLPRPRPRPTIIPRP	-0.35
RRIRNRPPRLPRPRPRPIYSPRP	-0.0185
RRIRYRPPRLPRPRPRPARQPRP	0.279
RRIRCRPPRLPRPRPRPCNCPRP	-0.278
RRIRYRPPRLPRPRPRPLHEPRP	-0.343
RRIRGRPPRLPRPRPRPDIYPRP	1.05
RRIRHRPPRLPRPRPRPRRKPRP	0.0896
RRIRSRPPRLPRPRPRPLDPPRP	-0.0203
RRIRQRPPRLPRPRPRPITNPRP	-0.158
RRIRFRPPRLPRPRPRPIDMPRP	-0.727
RRIRPRPPRLPRPRPRPEVCPRP	0.138
RRIRSRPPRLPRPRPRPFNIPRP	-0.109
RRIRLRPPRLPRPRPRPIVAPRP	-0.0323
RRIRGRPPRLPRPRPRPRDCPRP	1.11
RRIRWRPPRLPRPRPRPCACPRP	0.0874
RRIRHRPPRLPRPRPRPDRGPRP	-0.144
RRIRYRPPRLPRPRPRPNSCPRP	0.0432
RRIRMRPPRLPRPRPRPRQTPRP	0.0189

Sequence	shrunken log2 fold change
RRIRDRPPRLPRPRPRPARDPRP	0.724
RRIRVRPPRLPRPRPRPHVKPRP	-0.0504
RRIRVRPPRLPRPRPRPMHQPRP	0.02
RRIRVRPPRLPRPRPRPMHTPRP	0.0814
RRIRIRPPRLPRPRPRPRRTPRP	-0.0386
RRIRMRPPRLPRPRPRPATRPRP	1.58
RRIRNRPPRLPRPRPRPYMYPRP	0.0369
RRIRGRPPRLPRPRPRPCGMPRP	0.0775
RRIRNRPPRLPRPRPRPANIPRP	-0.0793
RRIRMRPPRLPRPRPRPIPVPRP	0.0294
RRIRKRPPRLPRPRPRPYPHPRP	-0.207
RRIRNRPPRLPRPRPRPKFNPRP	-0.569
RRIRKRPPRLPRPRPRPSAGPRP	0.227
RRIRPRPPRLPRPRPRPCAQPRP	-0.119
RRIRCRPPRLPRPRPRPKTPPRP	0.827
RRIRYRPPRLPRPRPRPGVKPRP	-0.188
RRIRIRPPRLPRPRPRPGGRPRP	0.229
RRIRCRPPRLPRPRPRPIFCPRP	-0.339
RRIRCRPPRLPRPRPRPWSNPRP	0.00372
RRIRERPPRLPRPRPRPSRRPRP	-0.432
RRIRERPPRLPRPRPRPLRMPRP	0.167
RRIRNRPPRLPRPRPRPCMSPRP	-0.108
RRIRHRPPRLPRPRPRPWVKPRP	-0.0135
RRIRGRPPRLPRPRPRPRGLPRP	1.05
RRIRGRPPRLPRPRPRPRLYPRP	0.291
